Results on 7 substances are retold here after article PMC6449081.

The target of experiment [1] is phage P22 coat protein E81R:E323R, in P22 phage particles (phage P22) (UniProt P26747). As to the kind of experiment: co-sedimentation; purified Dec added to purified P22 phages with WT or variant coat protein; free Dec separated by cesium chloride density gradient sedimentation; phage bands TCA-precipitated, SDS-PAGE, Coomassie bands of coat and Dec quantitated and normalized to the ratio in native P22 particles bound with Dec.

The target in experiment [2] is Dec Y31A with a C-terminal histidine tag (phage L). As to the kind of experiment: native gel or EMSA; native gel of purified Dec variants in solution. For orientation: Mobility shift assays separate free from complexed probe on a gel.
Experiment [3] addresses phage L decoration protein Dec, capsid-bound trimer in native phage L virions (phage L). As to the kind of experiment: cryo-EM structure; native phage L virions, vitrified; icosahedral reconstruction, 4.2 Å; NMR OB-fold of Dec and a coat homology model fitted into the map.
In experiment [4] the target is Dec Y49E with a C-terminal histidine tag (phage L). As to the kind of experiment: native gel or EMSA; native gel of purified Dec variants in solution.
The target of experiment [5] is Dec K30D with a C-terminal histidine tag (phage L). The description is as above.
Experiment [6] concerns the target Dec Y71A with a C-terminal histidine tag (phage L). Described as above.
For experiment [7], the target named is Dec E73R with a C-terminal histidine tag (phage L). The description is as above.

A word on the stoichiometry N: it is a count of units in the complex or per binding partner.

Take “recombinant wild type Dec with a C-terminal histidine tag (natural protein)”: in experiment [1], the Dec binding, normalized to WT (%) was below 20%.
The substance “Dec Y31A with a C-terminal histidine tag (natural protein)” came in with a stoichiometry N in experiment [2] of 3.
On to “phage L decoration protein Dec, capsid-bound trimer in native phage L virions (natural protein)”, for which the stoichiometry N in experiment [3] stood at 3.
“Dec Y49E with a C-terminal histidine tag (natural protein)”: the stoichiometry N in experiment [4] was found to be 3.
For the substance “Dec K30D with a C-terminal histidine tag (natural protein)”, the stoichiometry N in experiment [5] was found to be 3.
Substance “Dec Y71A with a C-terminal histidine tag (natural protein)” registered a stoichiometry N in experiment [6] of 3.
For the substance “Dec E73R with a C-terminal histidine tag (natural protein)”, the stoichiometry N in experiment [7] turned out to be 3.
